± gives the standard deviation of the averaged measurements.
B1: library; a variant is named by its letters at N, in order (parent)
chain: ACATTTGTTGATACAACCATAAAATGATAATTACACCCATAAATTGATAATTATCACACCCANNNNNNNNNNNNNNCTCTGATCATAGTCAGACCAACATTGCTACGACCCGTATTCGCACCGACAC

Tests used:
[1] = variants of: B1; assay: relative integration efficiency (T-RL orientation) vs wild-type transposon end (log2 (normalized fold change)); transposon end mutated: right end (5 bp flank + 75 bp right end); higher = more efficient transposition; conditions: with VchCAST RNA-guided transposition machinery (E. coli BL21(DE3) host, lacZ target)
Description: (§1)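 Pooled, barcoded VchCAST (Tn6677) mini-transposon donor libraries; each variable transposon-end sequence sits in a fixed pDonor mini-transposon context (10-bp barcode and cargo not included). Left- or right-end libraries were co-transformed with pEffector (TniQ-Cascade, TnsABC, lacZ crRNA, T7, 0.1 mM IPTG) into E. coli BL21(DE3) and grown 18 h at 37 C. T-LR and T-RL junction amplicons were sequenced; output/input barcode fold change was normalised to the mean of four wild-type barcodes and log2-transformed. Two biological replicates; zero-count/undetected variants carry floor values (-10 / -15), censored here. Barcode uncoupling by PCR recombination adds noise.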

[2] = variants of: B1; assay: relative integration efficiency (T-LR orientation) vs wild-type transposon end (log2 (normalized fold change)); transposon end mutated: right end (5 bp flank + 75 bp right end); higher = more efficient transposition; conditions: with VchCAST RNA-guided transposition machinery (E. coli BL21(DE3) host, lacZ target)
Description: as §1

| Variant | relative integration efficiency (log2) [1] | relative integration efficiency (log2) [2] |
| --- | --- | --- |
| TAAATTGATAGGTA | -0.219 ± 0.01 | 1.09 ± 0.099 |
| TAAAATGATATTGC | 0.0615 ± 0.025 | 0.274 ± 0.058 |
| TAAATTGATATTCC | -0.154 ± 0.11 | -0.146 ± 0.21 |
| TAAATTGATATTCG | -0.0179 ± 0.025 | -0.258 ± 0.12 |
| TAAATTGATATTAC | -0.14 ± 0.1 | 0.0276 ± 0.11 |
| TAAATTCTATTTGC | -0.619 ± 0.18 | 2.22 ± 0.053 |
| TAAATCGATATTGC | -0.159 ± 0.022 | 0.237 ± 0.063 |
| TAAATTGAATTTGC | -0.179 ± 0.17 | 1.16 ± 0.42 |
| TAAATTGAAATTGC | -0.187 ± 0.13 | 1.06 ± 0.27 |
| TAAATGGATATTGC | -0.161 ± 0.039 | 1.54 ± 0.17 |
| TAAATTGACATTGC | -0.167 ± 0.015 | 0.353 ± 0.12 |
| TAAATTGATATAGC | -0.0924 ± 0.038 | 0.0501 ± 0.056 |
| TAAACTGATATTGC | -0.0927 ± 0.037 | 0.318 ± 0.14 |
| TAAATTGATAATTA | 0.000518 ± 0.059 | 0.0298 ± 0.42 |
| TAAATTCATATTGC | -0.149 ± 0.23 | 2.62 ± 0.096 |
| TAAATTGATATTGC A11C | 0.342 ± 0.021 | -0.681 ± 0.56 |
| TAAATTGATATTGC A11G | -0.0551 ± 0.029 | -0.5 ± 0.17 |
| TAAATTGATATTGC A11T | 0.176 ± 0.055 | -0.678 ± 0.051 |
| AAAATTGATATTGC | -0.0332 ± 0.012 | 0.998 ± 0.085 |
| TAAATTGATATCGC | 0.0222 ± 0.012 | -0.0692 ± 0.048 |
| TAAATACATATTGC | -0.637 ± 0.26 | 2.3 ± 0.041 |
| TAAATTAATATTGC | -0.319 ± 0.15 | 1.63 ± 0.083 |
| TAAATTGATATGTA C77A | -0.158 ± 0.089 | 0.332 ± 0.19 |
| TAAAGGTCTATTGC | -0.635 ± 0.042 | 2.17 ± 0.33 |
| TAAATTGATAAACG | -0.208 ± 0.021 | 0.342 ± 0.21 |
| TAAATTGATAAAGC | -0.251 ± 0.025 | 0.6224 ± 0.0024 |
| TAAATTGATACTGC | -0.0852 ± 0.044 | 0.177 ± 0.018 |
| TAAATTGAGATTGC | -0.3392 ± 0.00035 | 0.765 ± 0.23 |

| Variant | relative integration efficiency (log2) [1] | relative integration efficiency (log2) [2] |
| --- | --- | --- |
| TAAATTGATAGTGC | -0.0439 ± 0.022 | 0.754 ± 0.013 |
| TAAATTGATATTGC A15C | 0.297 ± 0.19 | 0.449 ± 0.3 |
| TAAATTGATATTGC A15T | -0.218 ± 0.022 | -0.624 ± 0.069 |
| TAAATTGATATTGC A15G | -0.381 ± 0.0063 | -0.228 ± 0.029 |
| TAAAGTGATATTGC | 0.000666 ± 0.021 | 0.119 ± 0.27 |
| CAAATTGATATTGC | -0.643 ± 0.087 | 1.861 ± 0.015 |
| TAAAAAGATATTGC | -0.0646 ± 0.032 | 1.04 ± 0.075 |
| TAAATTGATATTGC A13T | 0.116 ± 0.008 | 0.0619 ± 0.48 |
| TAAATTGATATTGC A13G | 0.209 ± 0.06 | 0.173 ± 0.33 |
| TAAATTGATATTGC A13C | -0.236 ± 0.083 | -0.613 ± 0.75 |
| TAAATTGATATTGC A21G | -0.564 ± 0.14 | -1.31 ± 0.14 |
| TAAATTGATATTGC A21C | -0.283 ± 0.04 | -0.846 ± 0.23 |
| TAAAGGGATATTGC | -0.254 ± 0.0064 | 1.63 ± 0.069 |
| TAAATTGAGCTTGC | -0.264 ± 0.034 | 1.51 ± 0.32 |
| TAAATTCTTATTGC | -0.485 ± 0.094 | 2.36 ± 0.24 |
| TAAATTGATAGGGC | 0.0268 ± 0.029 | 1.18 ± 0.057 |
| TAAATTGATAATGC | 0.111 ± 0.029 | 0.354 ± 0.21 |
| TAAATTGATATGGC | 0.087 ± 0.065 | 0.317 ± 0.14 |
| TAAATTGATATTGA C77A | 0.00362 ± 0.0095 | 0.066 ± 0.4 |
| TAAATGTATATTGC | -0.000422 ± 0.028 | 2.416 ± 0.0088 |
| TAAATTGAGCGGGC | -0.15 ± 0.012 | 2.13 ± 0.086 |
| TAAATTGATATACC | -0.223 ± 0.13 | 0.207 ± 0.58 |
| TAAATAGATATTGC | -0.222 ± 0.0045 | 1.53 ± 0.13 |
| TAAAGTGATATTTA C59A | -0.094 ± 0.095 | -0.17 ± 0.3 |
| TAAATTGATATTGA | 0.138 ± 0.028 | 0.0994 ± 0.1 |
| TAAATTGATATTGC | -0.0034 ± 0.1 | -0.0165 ± 0.24 |
| TAAATTGATATGTC | -0.17 ± 0.058 | 0.485 ± 0.25 |

— the supplement of paper PMC10201428
